Laboratory results from the Human Domainome abundance scans (Beltran et al. 2025).
± gives the uncertainty stated by the source.

B1: Nucleolar transcription factor 1, residues 408 to 469; numbered along this chain, P17480 (parent)
chain: KRPVSAMFIFSEEKRRQLQEERPELSESELTRLLARMWNDLSEKKKAKYKAREAALKAQSER

Variants of: B1
Test: abundance fitness (aPCA) (normalised: wild type 0, dead -1); higher = more abundant; growth selection in yeast, the domain comes from the species named
Conditions: Homo sapiens

In order of rising abundance fitness:
1. KRPVSAMFIFSEEKRRQLQEERPELSESELTRLLARPWNDLSEKKKAKYKAREAALKAQSER [M37P]  -1.1 ± 0.092
2. KRPVSAMFIFSEEKRRQLQEERPELSESELTRLLARMNNDLSEKKKAKYKAREAALKAQSER [W38N]  -1.07 ± 0.22
3. KRPVSAMFIFSEEKRRQLQEERPELSESELTRLLARMMNDLSEKKKAKYKAREAALKAQSER [W38M]  -1.06 ± 0.08
4. KRPVSAMFIFSEEKRRQLQEERPELSESELTRLLARMRNDLSEKKKAKYKAREAALKAQSER [W38R]  -1.01 ± 0.048
5. KRPVSAMFIFSEEKRRQLQEERPELSESELTRLLARMLNDLSEKKKAKYKAREAALKAQSER [W38L]  -0.985 ± 0.07
6. KRPVSAMFIFSEEKRRQLQEERPELSESELTRLLARMCNDLSEKKKAKYKAREAALKAQSER [W38C]  -0.98 ± 0.092
7. KRPVSAMFIFSEEKRRQLQEERPELSESELTRLLARMANDLSEKKKAKYKAREAALKAQSER [W38A]  -0.892 ± 0.065
8. KRPVSAMFIFSEEKRRQLQEERPELSESELTRLLARMINDLSEKKKAKYKAREAALKAQSER [W38I]  -0.867 ± 0.14
9. KRPVSAMFIFSEEKRRQLQEERPELSESELTRLYARMWNDLSEKKKAKYKAREAALKAQSER [L34Y]  -0.833 ± 0.14
10. KRPVSAMFIFSEEKRRQLQEERPELSESELTRLLARMHNDLSEKKKAKYKAREAALKAQSER [W38H]  -0.803 ± 0.11
11. KRPVSAMFIFSEEKRRQLQEERPELSESELTRLLARMKNDLSEKKKAKYKAREAALKAQSER [W38K]  -0.787 ± 0.12
12. KRPVSAMFIFSEEKRRQLQEERPELSESELTRLLARMPNDLSEKKKAKYKAREAALKAQSER [W38P]  -0.737 ± 0.084
13. KRPVSAMFIFSEEKRRQLQEERPELSESELTRLLARMSNDLSEKKKAKYKAREAALKAQSER [W38S]  -0.732 ± 0.054
14. KRPVSAMFIFSEEKRRQLQEERPELSESELTRLLARMQNDLSEKKKAKYKAREAALKAQSER [W38Q]  -0.701 ± 0.094
15. KRPVSAMFIFSEEKRRQLQEERPELSESELTRLLARMGNDLSEKKKAKYKAREAALKAQSER [W38G]  -0.667 ± 0.041
16. KRPVSAMFIFSEEKRRQLQEERPELSESELTRLGARMWNDLSEKKKAKYKAREAALKAQSER [L34G]  -0.566 ± 0.06
17. KRPVSAMFIFSEEKRRQLQEERPELSESELTRLLARMENDLSEKKKAKYKAREAALKAQSER [W38E]  -0.49 ± 0.057
18. KRPVSAMFIFSEEKRRQLQEERPELSESELTRLLARMDNDLSEKKKAKYKAREAALKAQSER [W38D]  -0.456 ± 0.099
19. KRPVSAMFIFSEEKRRQLQEERPELSESELTRLLARDWNDLSEKKKAKYKAREAALKAQSER [M37D]  -0.422 ± 0.14
20. KRPVSAMFIFSEEKRRQLQEERPELSESELTRLLARVWNDLSEKKKAKYKAREAALKAQSER [M37V]  -0.382 ± 0.044
21. KRPVSAMFIFSEEKRRQLQEERPELSESELTRLLARGWNDLSEKKKAKYKAREAALKAQSER [M37G]  -0.32 ± 0.036
22. KRPVSAMFIFSEEKRRQLQEERPELSESELTRLLARNWNDLSEKKKAKYKAREAALKAQSER [M37N]  -0.305 ± 0.19
23. KRPVSAMFIFSEEKRRQLQEERPELSESELTRLLARKWNDLSEKKKAKYKAREAALKAQSER [M37K]  -0.296 ± 0.087
24. KRPVSAMFIFSEEKRRQLQEERPELSESELTRLEARMWNDLSEKKKAKYKAREAALKAQSER [L34E]  -0.287 ± 0.081
25. KRPVSAMFIFSEEKRRQLQEERPELSESELTRLSARMWNDLSEKKKAKYKAREAALKAQSER [L34S]  -0.271 ± 0.064
26. KRPVSAMFIFSEEKRRQLQEERPELSESELTRLLARHWNDLSEKKKAKYKAREAALKAQSER [M37H]  -0.267 ± 0.12
27. KRPVSAMFIFSEEKRRQLQEERPELSESELTRLLARFWNDLSEKKKAKYKAREAALKAQSER [M37F]  -0.239 ± 0.15
28. KRPVSAMFIFSEEKRRQLQEERPELSESELTRLLARQWNDLSEKKKAKYKAREAALKAQSER [M37Q]  -0.237 ± 0.088
29. KRPVSAMFIFSEEKRRQLQEERPELSESELTRLLARIWNDLSEKKKAKYKAREAALKAQSER [M37I]  -0.235 ± 0.14
30. KRPVSAMFIFSEEKRRQLQEERPELSESELTRLLARSWNDLSEKKKAKYKAREAALKAQSER [M37S]  -0.225 ± 0.058
31. KRPVSAMFIFSEEKRRQLQEERPELSESELTRLLARTWNDLSEKKKAKYKAREAALKAQSER [M37T]  -0.212 ± 0.07
32. KRPVSAMFIFSEEKRRQLQEERPELSESELTRLLARCWNDLSEKKKAKYKAREAALKAQSER [M37C]  -0.193 ± 0.1
33. KRPVSAMFIFSEEKRRQLQEERPELSESELTRLLARMYNDLSEKKKAKYKAREAALKAQSER [W38Y]  -0.151 ± 0.17
34. KRPVSAMFIFSEEKRRQLQEERPELSESELTRLLARRWNDLSEKKKAKYKAREAALKAQSER [M37R]  -0.147 ± 0.041
35. KRPVSAMFIFSEEKRRQLQEERPELSESELTRLLARMWCDLSEKKKAKYKAREAALKAQSER [N39C]  -0.138 ± 0.11
36. KRPVSAMFIFSEEKRRQLQEERPELSESELTRLLARYWNDLSEKKKAKYKAREAALKAQSER [M37Y]  -0.12 ± 0.055
37. KRPVSAMFIFSEEKRRQLQEERPELSESELTRLTARMWNDLSEKKKAKYKAREAALKAQSER [L34T]  -0.096 ± 0.082
38. KRPVSAMFIFSEEKRRQLQEERPELSESELTRLLARAWNDLSEKKKAKYKAREAALKAQSER [M37A]  -0.095 ± 0.06
39. KRPVSAMFIFSEEKRRQLQEERPELSESELTRLLAREWNDLSEKKKAKYKAREAALKAQSER [M37E]  -0.094 ± 0.056
40. KRPVSAMFIFSEEKRRQLQEERPELSESELTRLLARLWNDLSEKKKAKYKAREAALKAQSER [M37L]  -0.062 ± 0.041
41. KRPVSAMFIFSEEKRRQLQEERPELSESELTRLLARMWADLSEKKKAKYKAREAALKAQSER [N39A]  -0.037 ± 0.042
42. KRPVSAMFIFSEEKRRQLQEERPELSESELTRLLARMWEDLSEKKKAKYKAREAALKAQSER [N39E]  -0.037 ± 0.057
43. KRPVSAMFIFSEEKRRQLQEERPELSESELTRLLARMWDDLSEKKKAKYKAREAALKAQSER [N39D]  -0.021 ± 0.28
